Experimental data: the supplement of paper PMC7877785
± gives the uncertainty stated by the source.

Assay: self-splicing fitness, log relative to wild type (ln ratio); higher = more splicing; Tetrahymena group I intron in knt gene, E. coli kanamycin selection, DiMSum; sequences stand for … in CUCUCU…GGAGGGAAAAGUUAUCAGGCAUGCACCUGGUAGCUAGUCUUUAAACCAAUAGAUUGCAUCGGUUUAAAAGGCAAGACCGUCAAAUUGCGGGAAAGGGGUCAACAGCCGUUCAGUACCAAGUCUCAGGGGAAACUUUGAGAUGGCCUUGCAAAGGGUAUGGUAAUAAGCUGACGGACAUGGUCCUAACCACGCAGCCAAGUCCUAAGUCAACAGAUCUUCUGUUGAUAUGGAUGCAGUUCACAGACUAAAUGUCGGUCGGGGAAGAUGUAUUCUUCUCAUAAGAUAUAGUCGGACCUCUCCUUAAUGGGAGCUAGCGGAUGAAGUGAUGCAACACUGGAGCCGCUGGGAACUAAUUUGUAUGCGAAAGUAUAUUGAUUAGUUUUGGAGUACUCGUGGUCG
Outline: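 Fitness was computed with DiMSum as the error-weighted combination of replicate fold changes, kanamycin versus none, each normalised to wild type. The library randomised all eight intron nucleotides of the P1ex region, with the intron placed in the knt kanamycin-resistance gene on pET-22b(+) in E. coli BL21(DE3). Six replicate transformations were grown overnight at 37°C or 30°C on LB agar with or without 25 μg/mL kanamycin, plus 100 μg/mL carbenicillin, 50 μM IPTG and 0.2% rhamnose. Pooled colonies were amplicon-sequenced on an Illumina HiSeq 2500.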

| Sequence | self-splicing fitness (ln) (30 °C) | self-splicing fitness (ln) (37 °C) |
| --- | --- | --- |
| CACAAGCAAUAUUACGCGGC | -3.25 ± 0.19 | -2.98 ± 0.23 |
| CACGAGCAAUAUUACGUCUG | -2.32 ± 0.095 | -0.929 ± 0.092 |
| GUACAGCAAUAUUACGGGUU | -3.13 ± 0.09 | -2.22 ± 0.099 |
| ACAGAGCAAUAUUACGUCCG | -3.65 ± 0.21 | -2.52 ± 0.27 |
| CCCUAGCAAUAUUACGCCAG | -3.87 ± 0.32 | -3.21 ± 0.37 |
| AGGUAGCAAUAUUACGAGGC | -3.696 ± 0.036 | -2.87 ± 0.047 |
| ACAUAGCAAUAUUACGGACC | -1.56 ± 0.12 | -1.84 ± 0.23 |
| UAGGAGCAAUAUUACGGAAC |  | -0.574 ± 0.4 |
| AAUGAGCAAUAUUACGUUCG | -1.74 ± 0.11 | -0.765 ± 0.12 |
| CCGCAGCAAUAUUACGUAUU | -3.84 ± 0.17 | -2.66 ± 0.15 |
| CCAUAGCAAUAUUACGCCUU | -3.13 ± 0.22 | -3.02 ± 0.22 |
| GUAAAGCAAUAUUACGUCGA | -0.947 ± 0.088 | -0.407 ± 0.1 |
| GGAGAGCAAUAUUACGUGAA | -0.689 ± 0.2 | -2.2 ± 0.4 |
| UGAAAGCAAUAUUACGCAGU | -3.25 ± 0.22 | -1.3 ± 0.13 |
| UGCGAGCAAUAUUACGCAUA | -3.48 ± 0.43 | -3 ± 0.36 |
| GUAGAGCAAUAUUACGCCGU | -1.3 ± 0.33 | -0.778 ± 0.45 |
| AGACAGCAAUAUUACGCGAU | -2.68 ± 0.14 | -1.29 ± 0.15 |
| UGUCAGCAAUAUUACGUUGG | -4.09 ± 0.3 | -2.22 ± 0.25 |
| GUAUAGCAAUAUUACGUAAC | -1.95 ± 0.36 | -1.98 ± 0.32 |
| GGGCAGCAAUAUUACGUCUG | -1.11 ± 0.22 | -1.04 ± 0.16 |
| GGUGAGCAAUAUUACGGGAC | -3.63 ± 0.29 | -1.85 ± 0.19 |
| UUAGAGCAAUAUUACGUAUA | -3.64 ± 0.43 | -0.846 ± 0.27 |
| GCGCAGCAAUAUUACGGCGG | -2.48 ± 0.13 | -1.28 ± 0.15 |
| GCUCAGCAAUAUUACGCAAA | -1.15 ± 0.18 | -0.688 ± 0.14 |
| GCCGAGCAAUAUUACGGGGG | -3.61 ± 0.19 | -3.02 ± 0.31 |

| Sequence | self-splicing fitness (ln) (30 °C) | self-splicing fitness (ln) (37 °C) |
| --- | --- | --- |
| AAUGAGCAAUAUUACGAUUU | -1.24 ± 0.095 | -0.73 ± 0.1 |
| AAGAAGCAAUAUUACGCUCA | -0.0265 ± 0.13 | -0.132 ± 0.12 |
| GGUUAGCAAUAUUACGAUGC | -0.237 ± 0.13 | -0.251 ± 0.16 |
| CUCGAGCAAUAUUACGUCGC | -4.4 ± 0.36 | -1.12 ± 0.19 |
| AUGUAGCAAUAUUACGGUCA | -0.793 ± 0.14 | -0.745 ± 0.13 |
| UAUGAGCAAUAUUACGAAUG | -2.49 ± 0.17 | -1.28 ± 0.18 |
| AGUAAGCAAUAUUACGGGUC | -3.31 ± 0.42 | -2.92 ± 0.31 |
| CUCGAGCAAUAUUACGUUAG | -3.81 ± 0.21 | -1.37 ± 0.14 |
| CACGAGCAAUAUUACGCAUC | -1.74 ± 0.34 |  |
| CGCGAGCAAUAUUACGAUUG | -1.3 ± 0.12 | -0.15 ± 0.12 |
| CUGGAGCAAUAUUACGGGGG | -2.27 ± 0.26 | -1.89 ± 0.4 |
| UGGAAGCAAUAUUACGCGGU | -2.87 ± 0.17 | -2.69 ± 0.2 |
| GCUAAGCAAUAUUACGUCUA | -0.793 ± 0.095 | -0.911 ± 0.12 |
| CUUUAGCAAUAUUACGUCAG | -1.03 ± 0.12 | -0.4 ± 0.13 |
| CUAAAGCAAUAUUACGGUAC |  | -2.35 ± 0.25 |
| GUGUAGCAAUAUUACGCUGC | -3.26 ± 0.27 | -1.08 ± 0.23 |
| AUCAAGCAAUAUUACGCAGG | -2.34 ± 0.2 | -1.8 ± 0.2 |
| UAUUAGCAAUAUUACGAGUC | -3.35 ± 0.48 |  |
| GUUGAGCAAUAUUACGCGCG | -1.82 ± 0.21 | -1.51 ± 0.23 |
| GGGUAGCAAUAUUACGAGGC | -3.89 ± 0.47 | -2.19 ± 0.25 |
| UCUUAGCAAUAUUACGGGAA |  | -0.457 ± 0.3 |
| GCGAAGCAAUAUUACGGCUG | -1.55 ± 0.1 | -0.574 ± 0.14 |
| UCUCAGCAAUAUUACGCACG | -2.2 ± 0.2 | -2.06 ± 0.28 |
| CUACAGCAAUAUUACGUUUA | -3.39 ± 0.22 | -2.86 ± 0.19 |
| AGACAGCAAUAUUACGACAC | -1 ± 0.11 | -0.662 ± 0.14 |

| Sequence | self-splicing fitness (ln) (30 °C) | self-splicing fitness (ln) (37 °C) |
| --- | --- | --- |
| GCGAAGCAAUAUUACGGGCA | -1.96 ± 0.15 | -0.529 ± 0.11 |
| CCCUAGCAAUAUUACGAUCU | -3.92 ± 0.28 | -2.74 ± 0.24 |
| ACGCAGCAAUAUUACGAAGU | -3.6 ± 0.27 | -0.721 ± 0.13 |
| CGUUAGCAAUAUUACGACAA | -1.99 ± 0.17 | -1.15 ± 0.17 |
| UUUGAGCAAUAUUACGUCGG | -3.06 ± 0.21 | -1.28 ± 0.18 |
| GCGUAGCAAUAUUACGAACA | -0.46 ± 0.22 | -0.256 ± 0.24 |
| GGGCAGCAAUAUUACGACGU | -0.265 ± 0.1 | 0.553 ± 0.12 |
| GUACAGCAAUAUUACGCAGA |  | -2.72 ± 0.2 |
| UUCGAGCAAUAUUACGUGGU | -3.49 ± 0.28 | -3.18 ± 0.2 |
| GCCUAGCAAUAUUACGUUCU | -1.96 ± 0.14 | -0.354 ± 0.12 |
| CCCCAGCAAUAUUACGGAUC | -2.89 ± 0.12 | -2.96 ± 0.21 |
| UUAAAGCAAUAUUACGAAAA | -0.945 ± 0.057 | -0.761 ± 0.08 |
| GCUUAGCAAUAUUACGAUCG | -1.19 ± 0.1 | -0.254 ± 0.12 |
| AAUAAGCAAUAUUACGAUCC | -0.993 ± 0.21 | -0.374 ± 0.24 |
| AAGAAGCAAUAUUACGAGGA | -3.43 ± 0.28 | -2.98 ± 0.3 |
| CUAUAGCAAUAUUACGGCAU | -3.11 ± 0.25 | -2.37 ± 0.24 |
| AGUCAGCAAUAUUACGGACA | 0.233 ± 0.078 | 0.157 ± 0.087 |
| CGUAAGCAAUAUUACGGGUC | -4.24 ± 0.28 | -2.45 ± 0.2 |
| AUACAGCAAUAUUACGCACC | -1.21 ± 0.086 | -1.05 ± 0.1 |
| GAAAAGCAAUAUUACGAUUG | -2.27 ± 0.13 | -1.52 ± 0.14 |
| UCCCAGCAAUAUUACGCGAC | -4.31 ± 0.29 | -3.36 ± 0.31 |
| CGGGAGCAAUAUUACGUUUU | -2.19 ± 0.18 | -1.53 ± 0.27 |
| UUACAGCAAUAUUACGCCAU | -2.91 ± 0.25 | -2.48 ± 0.27 |
| CCAGAGCAAUAUUACGUAGA | -1.88 ± 0.12 | -2.08 ± 0.23 |
| ACGCAGCAAUAUUACGUUAG | -4.1 ± 0.16 | -2.46 ± 0.12 |

| Sequence | self-splicing fitness (ln) (30 °C) | self-splicing fitness (ln) (37 °C) |
| --- | --- | --- |
| AAGAAGCAAUAUUACGAUUG | -2.85 ± 0.26 | -1.78 ± 0.19 |
| ACCUAGCAAUAUUACGCAUU | -1.42 ± 0.051 | -0.377 ± 0.056 |
| CCGUAGCAAUAUUACGGUAA | -3.17 ± 0.24 | -3.3 ± 0.26 |
| CCAUAGCAAUAUUACGCCUC | -3.21 ± 0.4 | -1.74 ± 0.29 |
| AUUCAGCAAUAUUACGAAAU | -1 ± 0.091 | -0.557 ± 0.1 |
| GACUAGCAAUAUUACGGGUC | -3.22 ± 0.19 | -2.71 ± 0.28 |
| UCUUAGCAAUAUUACGGUAG |  | -2.11 ± 0.41 |
| GCUCAGCAAUAUUACGUUGC | -1.99 ± 0.17 | -1.27 ± 0.16 |
| UUAUAGCAAUAUUACGACAG | -1.09 ± 0.16 | -0.548 ± 0.21 |
| GAGUAGCAAUAUUACGUUAG | -3.69 ± 0.37 | -2.96 ± 0.34 |
| AAGCAGCAAUAUUACGUCGC | -2.95 ± 0.19 | -2.51 ± 0.31 |
| UCCUAGCAAUAUUACGAUCU |  | -1.69 ± 0.37 |
| UCCUAGCAAUAUUACGCUGC |  | -2.02 ± 0.29 |
| AUCAAGCAAUAUUACGUGCA | -0.986 ± 0.077 | -0.556 ± 0.088 |
| UAUUAGCAAUAUUACGGCGU | -1.24 ± 0.18 | -0.989 ± 0.18 |
| GGACAGCAAUAUUACGAGCG | -0.482 ± 0.081 | 0.0554 ± 0.12 |
| CAAAAGCAAUAUUACGUCUU | -2.5 ± 0.082 | -1.24 ± 0.08 |
| UCCUAGCAAUAUUACGUGGC | -3.85 ± 0.24 | -1.78 ± 0.2 |
| UACCAGCAAUAUUACGUGCU | -4.3 ± 0.19 | -2.93 ± 0.17 |
| UCGUAGCAAUAUUACGGCGA | -1.85 ± 0.37 | -0.98 ± 0.2 |
| GCAAAGCAAUAUUACGCGGA | -3.48 ± 0.27 | -1.94 ± 0.17 |
| CGUUAGCAAUAUUACGAUUA | -2.16 ± 0.26 | -1.14 ± 0.22 |
| UAGAAGCAAUAUUACGAUAC | -2.87 ± 0.32 | -2.46 ± 0.27 |
